# Measurements published in patent publication US20240400635A1 (Novo Nordisk, published 2024).
# B1: S{Beta-26}-[2-[2-[[2-[2-[2-[[2-[2-[2-[[(4S)-4-carboxy-4-(17-carboxyheptadecanoyl-amino)butanoyl]amino]ethoxy]ethoxy]acetyl]amino]ethoxy]ethoxy]acetyl]amino]-eth … (ligand)
# chain: HGEGTFTSDVSSYLEEQAACEFIAWLVKGGGGAQPGAQPGAQPGAQPAHPIPDSSPLLQFGGQVRQRYLYTDDAQQTEAHLEIREDGTVGGAADQSPESLLQLKALKPGVIQILGVKTSRFLCQRPDGALYGSLHFDPEACSFRELLLEDGYNVYQSEAHGLPLHLPGQKSPHRDPAPRGPARFLPLPGLPPALPEPPGILAPQPPDVGSSDPLSLVGGSQGRSPSYAS
# modifications: Cys26 of the GLP-1 part (GLP-1(7-37) numbering; residue 20 of the chain) S-alkylated with substituent Chem. 7
# Columns and labels:
# Experiment in all cases: cell-based or functional assay
# human GLP-1 receptor [1] = molecular target: T1, human GLP-1 receptor (human, UniProt P43220 24-463)
# human GLP-1 receptor [2] = molecular target: T1, human GLP-1 receptor; remark: listed apart in the source
# FGF receptor/BKL complex = FGF receptor/BKL complex (human, UniProt Q86Z14 1-1044)
# Sequence of FGF receptor/BKL complex (Q86Z14 whole entry, one chain of several): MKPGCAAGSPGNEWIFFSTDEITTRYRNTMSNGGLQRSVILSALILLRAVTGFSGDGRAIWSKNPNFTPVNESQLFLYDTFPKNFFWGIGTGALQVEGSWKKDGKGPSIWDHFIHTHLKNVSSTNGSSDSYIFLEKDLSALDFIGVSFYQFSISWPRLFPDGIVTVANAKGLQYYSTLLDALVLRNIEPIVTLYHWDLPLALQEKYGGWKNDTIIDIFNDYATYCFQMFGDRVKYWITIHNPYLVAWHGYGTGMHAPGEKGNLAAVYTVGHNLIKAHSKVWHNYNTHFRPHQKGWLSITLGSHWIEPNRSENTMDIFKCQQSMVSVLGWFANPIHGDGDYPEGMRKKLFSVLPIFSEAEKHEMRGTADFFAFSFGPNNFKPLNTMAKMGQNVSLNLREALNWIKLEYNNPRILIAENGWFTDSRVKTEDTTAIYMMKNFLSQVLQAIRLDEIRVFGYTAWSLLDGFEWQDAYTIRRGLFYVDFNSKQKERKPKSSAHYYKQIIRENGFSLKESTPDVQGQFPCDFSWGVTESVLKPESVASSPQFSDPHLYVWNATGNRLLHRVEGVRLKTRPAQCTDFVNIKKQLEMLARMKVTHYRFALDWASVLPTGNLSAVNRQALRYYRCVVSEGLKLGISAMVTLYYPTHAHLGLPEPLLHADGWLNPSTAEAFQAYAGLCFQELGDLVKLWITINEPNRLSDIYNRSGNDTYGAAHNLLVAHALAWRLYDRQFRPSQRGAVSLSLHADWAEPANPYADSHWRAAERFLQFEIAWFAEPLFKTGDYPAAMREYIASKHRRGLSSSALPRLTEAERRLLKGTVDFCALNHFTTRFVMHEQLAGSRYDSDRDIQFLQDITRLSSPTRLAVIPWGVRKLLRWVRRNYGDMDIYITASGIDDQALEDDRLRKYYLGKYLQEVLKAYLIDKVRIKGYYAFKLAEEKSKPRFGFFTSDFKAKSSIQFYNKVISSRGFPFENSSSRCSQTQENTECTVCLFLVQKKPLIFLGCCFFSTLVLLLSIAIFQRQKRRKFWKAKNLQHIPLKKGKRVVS
binder,measurement,setting,value
B1,"GLP-1R potency loss against Chem. 24, absence of HSA",human GLP-1 receptor [1],> 10 fold
same,GLP-1 receptor potency [EC50] pM 0% HSA,human GLP-1 receptor [2],67.4 pM
same,GLP-1 receptor potency [EC50] pM 1% HSA,human GLP-1 receptor [2],397 pM
same,FGF1 receptor potency [EC50] nM 0.1% HSA,FGF receptor/BKL complex,0.51 nM
same,FGF21 receptor potency [EC50] nM 0% HSA,FGF receptor/BKL complex,0.43 nM
